The labels stand for the following.
B1: mAb2 of Table 4A, caninized anti-NGF antibody ZTS-841, canine IgGA, WT (antibody)
heavy: EVQLVESGGDLVKPGGSLRLSCVASGFTFSSHGMHWVRQSPGKGLQWVAVINSGGSSTYYTDAVKGRFTISRDNAKNTVYLQMNSLRAEDTAMYYCAKESVGGWEQLVGPHFDYWGQGTLVIVSSASTTAPSVFPLAPSCGSTSGSTVALACLVSGYFPEPVTVSWNSGSLTSGVHTFPSVLQSSGLHSLSSMVTVPSSRWPSETFTCNVVHPASNTKVDKPVFNECRCTDTPPCPVPEPLGGPSVLIFPPKPKDILRITRTPEVTCVVLDLGREDPEVQISWFVDGKEVHTAKTQSREQQFNGTYRVVSVLPIEHQDWLTGKEFKCRVNHIDLPSPIERTISKARGRAHKPSVYVLPPSPKELSSSDTVSITCLIKDFYPPDIDVEWQSNGQQEPERKHRMTPPQLDEDGSYFLYSKLSVDKSRWQQGDPFTCAVMHETLQNHYTDLSLSHSPGK
VL: QSVLTQPTSVSGSLGQRVTISCSGSTNNIGILGASWYQLFPGKAPKLLVYGNGNRPSGVPDRFSGADSGDSVTLTITGLQAEDEADYYCQSFDTTLGAHVFGGGTHLTVL
notes: also called ID No. 39
B2: mAb2 of Table 4A, caninized anti-NGF antibody ZTS-841, canine IgGA, N434F (antibody)
heavy: B1 heavy with N443F
VL: B1 VL
notes: also called ID No. 40
B3: mAb2 of Table 4A, caninized anti-NGF antibody ZTS-841, canine IgGA, N434H (antibody)
heavy: B1 heavy with N443H
VL: B1 VL
notes: also called ID No. 41
B4: mAb1, caninized anti-IL31 antibody 34D03, canine IgGA, WT (antibody)
heavy: EVQLVESGGDLVKPGGSLRLSCVASGFTFSNYGMSWVRQAPGKGLQWVATISYGGSYTYYPDNIKGRFTISRDNAKNTLYLQMNSLRAEDTAMYYCVRGYGYDTMDYWGQGTLVTVSSASTTAPSVFPLAPSCGSTSGSTVALACLVSGYFPEPVTVSWNSGSLTSGVHTFPSVLQSSGLHSLSSMVTVPSSRWPSETFTCNVVHPASNTKVDKPVFNECRCTDTPPCPVPEPLGGPSVLIFPPKPKDILRITRTPEVTCVVLDLGREDPEVQISWFVDGKEVHTAKTQSREQQFNGTYRVVSVLPIEHQDWLTGKEFKCRVNHIDLPSPIERTISKARGRAHKPSVYVLPPSPKELSSSDTVSITCLIKDFYPPDIDVEWQSNGQQEPERKHRMTPPQLDEDGSYFLYSKLSVDKSRWQQGDPFTCAVMHETLQNHYTDLSLSHSPGK
VL: EIVMTQSPASLSLSQEEKVTITCKASQSVSFAGTGLMHWYQQKPGQAPKLLIYRASNLEAGVPSRFSGSGSGTDFSFTISSLEPEDVAVYYCQQSREYPWTFGQGTKLEIK
notes: VH/VL: the caninized 34D03 entries of the listing; also called ID No. 1
B5: mAb1, caninized anti-IL31 antibody 34D03, canine IgGA, N434H (antibody)
chain 1: B4 heavy with N436H
chain 2: EIVMTQSPASLSLSQEEKVTITCKASQSVSFAGTGLMHWYQQKPGQAPKLLIYRASNLEAGVPSRFSGSGSGTDFSFTISSLEPEDVAVYYCQQSREYPWTFGQGTKLEIKRNDAQPAVYLFQPSPDQLHTGSASVVCLLNSFYPKDINVKWKVDGVIQDTGIQESVTEQDKDSTYSLSSTLTMSSTEYLSHELYSCEITHKSLPSTLIKSFQRSEC
B6: mAb1, caninized anti-IL31 antibody 34D03, canine IgGA, N434F (antibody)
chain 1: B4 heavy with N436F
chain 2: B5 chain 2
B7: mAb1, caninized anti-IL31 antibody 34D03, canine IgGA, N434R (antibody)
chain 1: B4 heavy with N436R
chain 2: B5 chain 2

Substitutions are numbered along the chain they refer to. Names may count otherwise.

Sequence of canine FcRn complex (FcRn-α subunit and β-microglobulin) (A0A8I3PFR8 entry or part of it, one chain of several): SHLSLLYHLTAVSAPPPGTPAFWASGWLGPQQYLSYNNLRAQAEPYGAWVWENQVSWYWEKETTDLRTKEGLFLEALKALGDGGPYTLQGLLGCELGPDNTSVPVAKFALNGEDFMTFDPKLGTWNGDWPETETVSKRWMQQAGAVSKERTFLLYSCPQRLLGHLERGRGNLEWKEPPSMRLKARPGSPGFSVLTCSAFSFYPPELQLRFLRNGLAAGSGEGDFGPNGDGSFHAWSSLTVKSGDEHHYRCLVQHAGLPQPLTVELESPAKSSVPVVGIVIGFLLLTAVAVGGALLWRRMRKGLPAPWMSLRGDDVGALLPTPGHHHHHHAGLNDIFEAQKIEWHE

The experiment addresses canine FcRn complex (FcRn-α subunit and β-microglobulin) (canine, UniProt A0A8I3PFR8 25-347, biotin on the BAP tag by BirA (Example 5 only)). Description: SPR (Biacore), biotinylated FcRn on SA chip, IgG flowed, pH 6, 15 C.
As to B1, the affinity, expressed as Kd, was 95.5 nM.

Regarding B2, binding was put at a Kd of 9.81 nM. As for B3, the figure is 10.4 nM. As to B4, the Kd is 79.9 nM. B5 showed a Kd of 12.3 nM. With B6 the figure was 12.7 nM; with B7, 43.8 nM.
